Paper PMC13397619

B1: NLV2 TCR alpha chain (CDR3α only) (parent)
chain: AGPMKTSYDKVI

Variants of: B1
Test: T-Switch: Jurkat TCRβ−/− cells expressing a CDR3 saturation-mutagenesis library, stained with two peptide-HLA-A*02:01 tetramers (original and novel peptide) plus anti-CD3, FACS-sorted into four gates, gDNA sequenced
Settings: tetramers 1 µg/mL, 30 min on ice, SP, DP and SW gates expanded about 10 days between rounds ('two to three rounds of selection' in the Methods), unresolved parent, parent is a CDR3 fragment, scale: fold enrichment, numbering: sequential-on-construct, sequence starts at 1
[1] = with both tetramers (double-negative gate, binds neither): HLA-A*02:01 with … and with …, gate DN: OPPOSITE: higher = more of the variant in the gate that binds neither peptide = LESS binding (or no expression; inferred). Fold enrichment of the CDR3 variant in one FACS gate of a two-tetram
[2] = with both tetramers (double-positive gate): HLA-A*02:01 with … and with …, gate DP: higher = more of the variant in the gate that binds both peptides. Fold enrichment of the CDR3 variant in one FACS gate of a two-tetramer stain. SP/DP/SW gates were expanded and re-sorted bef

Variant | enrichment [1] | enrichment [2]
[…] (CDR3 as printed); A1P derived by comparing it with the table's wild-type CDR3 AGPMKTSYDKVI | 0.883 | 0
[…] (CDR3 as printed); K5W derived by comparing it with the table's wild-type CDR3 AGPMKTSYDKVI | 0.659 | 0
[…] (CDR3 as printed); Y8V derived by comparing it with the table's wild-type CDR3 AGPMKTSYDKVI | 1.48 | 0
[…] (CDR3 as printed); K10D derived by comparing it with the table's wild-type CDR3 AGPMKTSYDKVI | 0.842 | 0
[…] (CDR3 as printed); V11S derived by comparing it with the table's wild-type CDR3 AGPMKTSYDKVI | 1.15 | 0
[…] (CDR3 as printed); M4E derived by comparing it with the table's wild-type CDR3 AGPMKTSYDKVI | 0.637 | 0
[…] (CDR3 as printed); P3M derived by comparing it with the table's wild-type CDR3 AGPMKTSYDKVI | 1.17 | 0
[…] (CDR3 as printed); A1Q derived by comparing it with the table's wild-type CDR3 AGPMKTSYDKVI | 0.89 | 0
[…] (CDR3 as printed); I12D derived by comparing it with the table's wild-type CDR3 AGPMKTSYDKVI | 0.942 | 0
[…] (CDR3 as printed); V11I derived by comparing it with the table's wild-type CDR3 AGPMKTSYDKVI | 0.74 | 0
[…] (CDR3 as printed); V11C derived by comparing it with the table's wild-type CDR3 AGPMKTSYDKVI | 1.08 | 0
[…] (CDR3 as printed); D9K derived by comparing it with the table's wild-type CDR3 AGPMKTSYDKVI | 0.961 | 0
[…] (CDR3 as printed); M4V derived by comparing it with the table's wild-type CDR3 AGPMKTSYDKVI | 0.322 | 0
[…] (CDR3 as printed); K5Q derived by comparing it with the table's wild-type CDR3 AGPMKTSYDKVI | 0.51 | 0
[…] (CDR3 as printed); Y8G derived by comparing it with the table's wild-type CDR3 AGPMKTSYDKVI | 1.22 | 0
[…] (CDR3 as printed); D9T derived by comparing it with the table's wild-type CDR3 AGPMKTSYDKVI | 0.889 | 0
[…] (CDR3 as printed); A1K derived by comparing it with the table's wild-type CDR3 AGPMKTSYDKVI | 1 | 0
[…] (CDR3 as printed); K5Y derived by comparing it with the table's wild-type CDR3 AGPMKTSYDKVI | 0.737 | 0
[…] (CDR3 as printed); A1M derived by comparing it with the table's wild-type CDR3 AGPMKTSYDKVI | 0.803 | 0

Variant | enrichment [1] | enrichment [2]
[…] (CDR3 as printed); K10A derived by comparing it with the table's wild-type CDR3 AGPMKTSYDKVI | 0.862 | 0
[…] (CDR3 as printed); K5R derived by comparing it with the table's wild-type CDR3 AGPMKTSYDKVI | 1.15 | 0
[…] (CDR3 as printed); K5S derived by comparing it with the table's wild-type CDR3 AGPMKTSYDKVI | 0.492 | 0
[…] (CDR3 as printed); M4K derived by comparing it with the table's wild-type CDR3 AGPMKTSYDKVI | 0.454 | 0
[…] (CDR3 as printed); P3N derived by comparing it with the table's wild-type CDR3 AGPMKTSYDKVI | 1.07 | 0
[…] (CDR3 as printed); S7A derived by comparing it with the table's wild-type CDR3 AGPMKTSYDKVI | 0.945 | 0
[…] (CDR3 as printed); I12V derived by comparing it with the table's wild-type CDR3 AGPMKTSYDKVI | 0.739 | 0
[…] (CDR3 as printed); K5A derived by comparing it with the table's wild-type CDR3 AGPMKTSYDKVI | 0.428 | 0
[…] (CDR3 as printed); P3L derived by comparing it with the table's wild-type CDR3 AGPMKTSYDKVI | 1.13 | 0
[…] (CDR3 as printed); K10P derived by comparing it with the table's wild-type CDR3 AGPMKTSYDKVI | 0.876 | 0
[…] (CDR3 as printed); M4A derived by comparing it with the table's wild-type CDR3 AGPMKTSYDKVI | 0.697 | 0
[…] (CDR3 as printed); T6I derived by comparing it with the table's wild-type CDR3 AGPMKTSYDKVI | 0.515 | 0
[…] (CDR3 as printed); Y8K derived by comparing it with the table's wild-type CDR3 AGPMKTSYDKVI | 0.928 | 0
[…] (CDR3 as printed); Y8T derived by comparing it with the table's wild-type CDR3 AGPMKTSYDKVI | 1.15 | 0
[…] (CDR3 as printed); A1L derived by comparing it with the table's wild-type CDR3 AGPMKTSYDKVI | 0.94 | 0
[…] (CDR3 as printed); Y8C derived by comparing it with the table's wild-type CDR3 AGPMKTSYDKVI | 1.27 | 0
[…] (CDR3 as printed); D9N derived by comparing it with the table's wild-type CDR3 AGPMKTSYDKVI | 1.01 | 0
[…] (CDR3 as printed); P3S derived by comparing it with the table's wild-type CDR3 AGPMKTSYDKVI | 1.18 | 0
[…] (CDR3 as printed); P3I derived by comparing it with the table's wild-type CDR3 AGPMKTSYDKVI | 1.09 | 0

Variant | enrichment [1] | enrichment [2]
[…] (CDR3 as printed); G2F derived by comparing it with the table's wild-type CDR3 AGPMKTSYDKVI | 0.804 | 0
[…] (CDR3 as printed); M4H derived by comparing it with the table's wild-type CDR3 AGPMKTSYDKVI | 0.903 | 0
[…] (CDR3 as printed); K10Q derived by comparing it with the table's wild-type CDR3 AGPMKTSYDKVI | 0.706 | 0
[…] (CDR3 as printed); A1S derived by comparing it with the table's wild-type CDR3 AGPMKTSYDKVI | 0.736 | 0
[…] (CDR3 as printed); M4N derived by comparing it with the table's wild-type CDR3 AGPMKTSYDKVI | 0.728 | 0
[…] (CDR3 as printed); V11N derived by comparing it with the table's wild-type CDR3 AGPMKTSYDKVI | 1.11 | 0
[…] (CDR3 as printed); M4G derived by comparing it with the table's wild-type CDR3 AGPMKTSYDKVI | 0.783 | 0
[…] (CDR3 as printed); A1R derived by comparing it with the table's wild-type CDR3 AGPMKTSYDKVI | 0.924 | 0
[…] (CDR3 as printed); K10G derived by comparing it with the table's wild-type CDR3 AGPMKTSYDKVI | 1 | 0
[…] (CDR3 as printed); S7K derived by comparing it with the table's wild-type CDR3 AGPMKTSYDKVI | 1.32 | 0
[…] (CDR3 as printed); T6E derived by comparing it with the table's wild-type CDR3 AGPMKTSYDKVI | 1.78 | 0
[…] (CDR3 as printed); S7I derived by comparing it with the table's wild-type CDR3 AGPMKTSYDKVI | 1.04 | 0
[…] (CDR3 as printed); Y8W derived by comparing it with the table's wild-type CDR3 AGPMKTSYDKVI | 1.01 | 0
[…] (CDR3 as printed); V11M derived by comparing it with the table's wild-type CDR3 AGPMKTSYDKVI | 1.2 | 0
[…] (CDR3 as printed); V11F derived by comparing it with the table's wild-type CDR3 AGPMKTSYDKVI | 1.29 | 0
[…] (CDR3 as printed); D9Q derived by comparing it with the table's wild-type CDR3 AGPMKTSYDKVI | 0.673 | 0
[…] (CDR3 as printed); Y8F derived by comparing it with the table's wild-type CDR3 AGPMKTSYDKVI | 1.1 | 0
[…] (CDR3 as printed); S7E derived by comparing it with the table's wild-type CDR3 AGPMKTSYDKVI | 1.01 | 0
[…] (CDR3 as printed); D9E derived by comparing it with the table's wild-type CDR3 AGPMKTSYDKVI | 1.03 | 0
